Positions count from the first letter of the chain named. Where two headings read alike, the source gives them in different places.

For orientation: Kd means a measure of binding affinity in units of concentration. A high value points to a looser complex. As usually defined, the koff is the first-order rate constant of dissociation. Low values mean a long-lived complex, high ones a short-lived complex. The kon is the second-order rate constant of association. Lower therefore signals slow association.

The target in test [1] is T1, sIL-6R (soluble IL-6 receptor; SBH Sciences) (human, UniProt P08887 20-365).
T1 construct: also called human IL-6R
T1 sequence: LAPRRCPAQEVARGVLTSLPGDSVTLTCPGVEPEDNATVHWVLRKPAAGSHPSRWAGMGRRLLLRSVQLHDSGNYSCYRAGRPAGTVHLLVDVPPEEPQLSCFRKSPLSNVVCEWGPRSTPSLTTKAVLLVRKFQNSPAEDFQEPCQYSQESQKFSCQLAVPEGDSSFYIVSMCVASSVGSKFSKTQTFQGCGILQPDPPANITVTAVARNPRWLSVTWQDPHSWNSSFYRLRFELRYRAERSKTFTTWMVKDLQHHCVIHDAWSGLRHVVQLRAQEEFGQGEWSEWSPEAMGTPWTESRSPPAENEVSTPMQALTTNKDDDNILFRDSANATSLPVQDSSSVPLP
Put plainly: SPR (BIAcore 3000), antibody on chip, sIL-6R analyte, 25 C. The protocol: (§1) All SPR measurements were performed on a BIAcore 3000 instrument (GE Biosciences, Piscataway, N.J.). BIAcore Software-BIAcore 3000 Control Software V3.2 was used for the operation and control of the BIAcore 3000 instrument. BiaEvaluation Software V4.1 was used for the analysis of SPR data from the BIAcore 3000 instrument and data was plotted using Graph Pad Prism Software Version 5. […] The indicated antibodies were used as the ligand for the construction of the reference channel of the chip. […] Each sample was injected for 3 min at a flow rate of 30 μL/min to allow for binding to chip-bound antibody. Next, binding buffer without analyte was sent over the chip at the same flow rate to allow for dissociation of bound analyte. After 500s, remaining bound analyte was removed by injecting regeneration solution (1M Formic acid). Data was analyzed by using the Kinetics Wizard and the manual fitting programs that are both included with the BiaEvaluation Software V4.1.
For orientation: In SPR one partner is held on a chip, and binding of the other changes the refractive index at the surface.

Test [2] has as its target T1, sIL-6R (soluble IL-6 receptor; SBH …). Described as above. The protocol: as §1
This is another data set of the same source.

The target is the same in test [3]. Put plainly: SPR; ratio of KD at pH 6.0 to KD at pH 7.4. On the procedure: as §1
(§2) SPR measurements at pH 7.4 and pH 6.0 were performed in parallel and KD values calculated according to the protocol as detailed in Example 1. The pH dependence is calculated as the ratio between the KD value at pH 6.0 and the KD value at pH 7.4, which indicates the fold of affinity decrease from the pH7.4 to pH6.0. If the pH dependence of a subject antibody described herein is over 1, it means that the antibody binds to IL-6R in such a pH-dependent manner that its binding to IL-6R at pH7.4 is higher than at pH6.0. If the pH dependence of a subject antibody described herein is lower than 1, it means that the antibody binds to IL-6R in such a pH-dependent manner that its binding to IL-6R at pH6.0 is higher than at pH7.4.

The target is the same in test [4]. Description: SPR (BIAcore 3000), antibody on chip, sIL-6R analyte, 25 C. On the procedure:
as §1
This is another data set of the same source.

Test [5] has the same target. Description: SPR (BIAcore 3000), antibody on chip, sIL-6R analyte, pH 6.0. The protocol:
as §1, §2

The target is the same in test [6]. Put plainly: SPR (BIAcore 3000), antibody on chip, sIL-6R analyte, pH 7.4. The protocol: as §1, §2
For test [7] the target is unchanged. Description: SPR (BIAcore 3000), antibody on chip, sIL-6R analyte, pH 6.0. The protocol:
as §1, §2
The source holds these as a separate data set.

Test [8] shares this target. Put plainly: SPR (BIAcore 3000), antibody on chip, sIL-6R analyte, pH 7.4. The protocol:
as §1, §2
This is another data set of the same source.

B1: 64# (antibody, human IgG1, kappa, V domains shown)
VH: QVQLQESGPGLVRPSQTLSLTCTVSGYSITSDHAWSWVRQPPGRGLEWIGFISYSGMTTYNPSLKSRVTMLRDTSKNQFSLRLSSVTAADTAVYYCARCLARMTAMDYWGQGSLVTVSS
VL: DIQMTQSPSSLSASVGDRVTITCRASQDISSYLNWYQQKPGKAPKLLIYYTSRLHSGVPSRFSGSGSGTDFTFTISSLQPEDIATYYCQQGNTLPYTFGQGTKVEIKR
notes: also called Sample # 64
For the molecule B1, in test [1], the Kd was 0.133 nM, the “Relative Affinity” value is 21.4 fold vs 25 (Tocilizumab), the koff was found to be 2.85e-05 s⁻¹ and the kon was 214000 M⁻¹ s⁻¹.

B2: 247# (antibody, human IgG1, kappa, V domains shown)
VH: B1 VH with F51Y
VL: B1 VL with Q89G, T93R
notes: also called Sample # 247
Consider B2, for which, in test [2], the Kd stood at 0.212 nM, the “Relative Affinity” value was 13.2 fold vs 25 (Tocilizumab), the koff turned out to be 3.54e-05 s⁻¹ and the kon was found to be 167000 M⁻¹ s⁻¹.

B3: 237# (antibody, human IgG1, kappa, V domains shown)
VH: B1 VH with F51Y, M103T
VL: B1 VL with Q89G, T93R
notes: also called Sample # 237
B3: the “pH dependence (Fold of affinity decrease)” value in test [3] turned out to be 2.63 fold. In addition, in test [4], the Kd came out at 0.0605 nM, the “Relative Affinity” value is 52.2 fold vs 25 (Tocilizumab), the koff was found to be 1.01e-05 s⁻¹ and the kon is 166000 M⁻¹ s⁻¹. In test [5], this molecule had a Kd of 0.159 nM, a koff of 4.62e-05 s⁻¹ and a kon of 292000 M⁻¹ s⁻¹. In test [6], binding was characterised by a dissociation constant (Kd) of 0.0605 nM, the koff came out at 1.01e-05 s⁻¹ and the kon was 166000 M⁻¹ s⁻¹.

B4: 231# (antibody, human IgG1, kappa, V domains shown)
VH: B1 VH with F51Y, M57I, C99T, M106I, Y108F
VL: B1 VL
notes: also called Sample # 231
Consider B4, for which, in test [3], the “pH dependence (Fold of affinity decrease)” value was determined as 95.5 fold. For the same molecule, in test [4], the Kd was found to be 0.00112 nM, the “Relative Affinity” value was 2820 fold vs 25 (Tocilizumab), the koff amounted to 1.48e-07 s⁻¹ and the kon was 132000 M⁻¹ s⁻¹. Besides, in test [5], the Kd came out at 0.107 nM, the koff came out at 3.1e-05 s⁻¹ and the kon is 291000 M⁻¹ s⁻¹. In test [6], this molecule had a Kd of 0.00112 nM, a koff of 1.48e-07 s⁻¹ and an association rate constant (kon) of 132000 M⁻¹ s⁻¹.

B5: 249# (antibody, human IgG1, kappa, V domains shown)
VH: B1 VH with F51Y, M103A
VL: B1 VL with Q89G, T93R
As to B5, in test [2], the Kd turned out to be 0.241 nM, the “Relative Affinity” value is 11.6 fold vs 25 (Tocilizumab), the koff amounted to 3.39e-05 s⁻¹ and the kon worked out at 141000 M⁻¹ s⁻¹.

B6: 203# (antibody, human IgG1, kappa, V domains shown)
VH: B1 VH with F51Y, M57I
VL: B1 VL with Q89G, T93R
notes: also called Sample # 203
B6: in test [1], the affinity, expressed as Kd, was 0.334 nM; the “Relative Affinity” value is 8.5 fold vs 25 (Tocilizumab); the koff was 3.17e-05 s⁻¹; the kon amounted to 95000 M⁻¹ s⁻¹.

B7: 68# (antibody, human IgG1, kappa, V domains shown)
VH: B1 VH with M103I, M106I, W109F
VL: B1 VL
notes: also called Sample # 68
For the molecule B7, in test [1], the Kd stood at 0.0296 nM, the “Relative Affinity” value is 96.3 fold vs 25 (Tocilizumab), the koff is 8.6e-06 s⁻¹ and the kon was found to be 291000 M⁻¹ s⁻¹.

B8: 209# (antibody, human IgG1, kappa, V domains shown)
VH: B1 VH with C99S, M103I, M106I, Y108F
VL: B1 VL
notes: also called Sample # 209
For B8, in test [3], the “pH dependence (Fold of affinity decrease)” value came out at 65.5 fold. In test [4], the affinity, expressed as Kd, was 0.000669 nM; the “Relative Affinity” value is 4720 fold vs 25 (Tocilizumab); the koff came out at 1.37e-07 s⁻¹; the kon was determined as 204000 M⁻¹ s⁻¹. In test [5], this molecule displayed a Kd of 0.0438 nM, a koff of 2.99e-05 s⁻¹ and a kon of 683000 M⁻¹ s⁻¹. In test [6], this molecule came in with a Kd of 0.000669 nM, a koff of 1.37e-07 s⁻¹ and a kon of 204000 M⁻¹ s⁻¹.

B9: 208# (antibody, human IgG1, kappa, V domains shown)
VH: B1 VH with C99S, M103A
VL: B1 VL
notes: also called Sample # 208
For the molecule B9, in test [1], binding was put at a Kd of 0.126 nM, the “Relative Affinity” value is 22.6 fold vs 25 (Tocilizumab), the koff is 2.79e-05 s⁻¹ and the kon turned out to be 221000 M⁻¹ s⁻¹.

B10: 250# (antibody, human IgG1, kappa, V domains shown)
VH: B1 VH with F51Y, C99S, M103I
VL: B1 VL
notes: also called Sample # 250
With B10, in test [2], the affinity, expressed as Kd, was 0.354 nM; the “Relative Affinity” value was 7.9 fold vs 25 (Tocilizumab); the koff was determined as 9.27e-05 s⁻¹; the kon was found to be 262000 M⁻¹ s⁻¹.

B11: 251# (antibody, human IgG1, kappa, V domains shown)
VH: B1 VH with F51Y, T58I, C99S, M103I
VL: B1 VL
notes: also called Sample # 251
As for B11, in test [2], the Kd turned out to be 0.805 nM, the “Relative Affinity” value is 3.5 fold vs 25 (Tocilizumab), the koff was 0.00014 s⁻¹ and the kon amounted to 173000 M⁻¹ s⁻¹.

B12: 66# (antibody, human IgG1, kappa, V domains shown)
VH: B1 VH with C99S
VL: B1 VL
notes: also called Sample # 66
Consider B12, for which, in test [1], the Kd was determined as 0.141 nM, the “Relative Affinity” value was 20.2 fold vs 25 (Tocilizumab), the koff was found to be 3.38e-05 s⁻¹ and the kon worked out at 239000 M⁻¹ s⁻¹.

B13: 248# (antibody, human IgG1, kappa, V domains shown)
VH: B1 VH with F51Y, T58I, C99T, M106I, Y108F
VL: B1 VL with Q89G, T93R
notes: also called Sample # 248
As to B13, in test [2], binding was characterised by a dissociation constant (Kd) of 0.189 nM, the “Relative Affinity” value was 14.8 fold vs 25 (Tocilizumab), the koff turned out to be 1.73e-05 s⁻¹ and the kon was 91200 M⁻¹ s⁻¹.

B14: 205# (antibody, human IgG1, kappa, V domains shown)
VH: B1 VH with M103T
VL: B1 VL with Q89G, T93R
As to B14, in test [3], the “pH dependence (Fold of affinity decrease)” value came out at 4.59 fold. For the same molecule, in test [1], the Kd turned out to be 0.0122 nM, the “Relative Affinity” value is 234 fold vs 25 (Tocilizumab), the koff stood at 2.14e-06 s⁻¹ and the kon was found to be 175000 M⁻¹ s⁻¹. In test [7], this molecule showed a Kd of 0.056 nM, a koff of 2.15e-05 s⁻¹ and a kon of 384000 M⁻¹ s⁻¹. In test [8], this molecule displayed a dissociation constant Kd of 0.0122 nM, a koff of 2.14e-06 s⁻¹ and a kon of 175000 M⁻¹ s⁻¹.

B15: 201# (antibody, human IgG1, kappa, V domains shown)
VH: B1 VH with M103I, M106I, Y108F
VL: B1 VL
notes: also called Sample # 201
Consider B15, for which, in test [1], the affinity, expressed as Kd, was 0.0674 nM; the “Relative Affinity” value is 42.3 fold vs 25 (Tocilizumab); the koff is 1.47e-05 s⁻¹; the kon worked out at 218000 M⁻¹ s⁻¹.

The values are drawn from patent publication US20190315854A1 (BEIJING VDJBIO, published 2019).
